Source: patent publication US20260115256A1 (HANGZHOU SCIWIND BIOSCIENCES, published 2026)
Values belong to the binder of their own block, whether it stands above or below them. *1 amine or outer side, *2 acyl side, *3 side chain or, on linkers, in order; H or OH if unused. Bridges are numbered along the chain shown (N, C = ends). Primed or numbered codes have the meaning given here. Where no end group is shown, it is not given here. Side-chain parts run from the residue outwards. [ ]: non-standard residue; d: D form. The star is where a group is joined. C20 diacid = O=C(O)CCCCCCCCCCCCCCCCCCC(=O)*; γGlu = O=C(O)[C@H](CCC(=O)[*:2])N[*:1]; βAsp = O=C(O)[C@H](CC(=O)[*:2])N[*:1]; Hyp = O=C(O)[C@@H]1C[C@@H](O)CN1; Aad = N[C@@H](CCCC(=O)O)C(=O)O; αMeP = C[C@@]1(C(=O)O)CCCN1; Orn = NCCC[C@H](N)C(=O)O; Aze = O=C(O)[C@@H]1CCN1; Dab = NCC[C@H](N)C(=O)O; Inp′ = not defined here; Pip′ = not defined here; Dap = NC[C@H](N)C(=O)O; AEEA = NCCOCCOCC(=O)O

Target: T1, human amylin receptor (AMY3) on CHO-K1/Ga15/AMY3 cells (human, UniProt P30988 25-474; O60896 24-148)
T1 sequence (looked up) 1: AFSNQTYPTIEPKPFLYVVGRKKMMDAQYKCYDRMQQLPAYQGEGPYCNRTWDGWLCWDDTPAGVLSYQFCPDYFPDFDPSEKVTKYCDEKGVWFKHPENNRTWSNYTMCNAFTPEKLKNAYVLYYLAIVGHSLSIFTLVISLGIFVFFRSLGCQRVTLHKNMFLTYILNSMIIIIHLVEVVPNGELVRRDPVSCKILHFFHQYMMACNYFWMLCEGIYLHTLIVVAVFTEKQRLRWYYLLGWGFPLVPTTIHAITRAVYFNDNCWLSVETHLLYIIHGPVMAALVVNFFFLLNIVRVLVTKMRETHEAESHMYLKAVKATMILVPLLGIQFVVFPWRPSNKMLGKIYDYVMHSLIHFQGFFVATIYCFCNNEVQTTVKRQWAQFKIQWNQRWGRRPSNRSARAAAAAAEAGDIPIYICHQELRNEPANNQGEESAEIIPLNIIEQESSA
T1 sequence (looked up) 2: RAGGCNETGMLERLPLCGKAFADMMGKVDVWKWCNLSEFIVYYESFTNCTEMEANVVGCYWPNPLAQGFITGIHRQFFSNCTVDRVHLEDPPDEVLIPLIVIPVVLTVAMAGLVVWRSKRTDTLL
Experiment: cell-based or functional assay

EC50, CRE-luciferase assay: 0.049 nM
B4: PD054 (peptide)
peptide: CNTATCATQRLADFLRHSSNNLK([γGlu-C20 diacid])PILPPTNVGSNTX-NH2
modifications: disulfide 1-6 (inferred); not fully specified (residue 36); printed as CNTATCATQRLADFLRHSSNNLKPILPPTNVGSNT-trans-Hyp-NH2

EC50, CRE-luciferase assay: 2.62 nM
B6: PD044 (peptide)
peptide: RCNTATCATQRLA[Dab]FLRHSSNNLK([γGlu-C20 diacid])PILPPTNVGSNTP-NH2
modifications: disulfide 2-7 (inferred)

EC50, CRE-luciferase assay: 0.055 nM
B7: PD064 (peptide)
peptide: RCNTATCATQRLADFLRHSSNNLK([γGlu-C20 diacid])PILPPTNVGSNT[αMeP]-NH2
modifications: disulfide 2-7 (inferred)

EC50, CRE-luciferase assay: 0.038 nM
B10: PD070 (peptide)
peptide: K([γGlu-C20 diacid])CNTATCATQRLADFLRHSSNNLGPILPPTNVGSNT[Hyp]-NH2
modifications: disulfide 2-7 (inferred)

EC50, CRE-luciferase assay: 0.101 nM
B11: PD063 (peptide)
peptide: RCNTATCATQRLAEFLRHSSNNLK([γGlu-C20 diacid])PILPPTNVGSNT[αMeP]-NH2
modifications: disulfide 2-7 (inferred)

EC50, CRE-luciferase assay: 0.815 nM
B12: PD061 (peptide)
peptide: RCNTATCATQRLAEFLRHSSNNLK([γGlu-C20 diacid])PILPPTNVGSNT[3‑Am‑Pro]-NH2
modifications: disulfide 2-7 (inferred)

EC50, CRE-luciferase assay: 0.032 nM
B14: PD068 (peptide)
peptide: K([γGlu-C20 diacid])CNTATCATQRLADFLRHSSNNFGPILPPTNVGSNT[Hyp]-NH2
modifications: disulfide 2-7 (inferred)

EC50, CRE-luciferase assay: 0.909 nM
B16: PD055 (peptide)
peptide: RCNTATCATQRLAEFLRHSSNNLK([γGlu-C20 diacid])PILPPTNVGSNT[cis‑Hyp]-NH2
modifications: disulfide 2-7 (inferred)

EC50, CRE-luciferase assay: 0.102 nM
B17: PD004 (peptide)
peptide: RCNTATCATQRLAEFLRHSSNNLK([AEEA-AEEA-γGlu-C20 diacid])PILPPTNVGSNTP-NH2
modifications: disulfide 2-7 (inferred)

EC50, CRE-luciferase assay: 0.075 nM
B20: PD053 (peptide)
peptide: CNTATCATQRLAEFLRHSSNNLK([γGlu-C20 diacid])PILPPTNVGSNTX-NH2
modifications: disulfide 1-6 (inferred); not fully specified (residue 36); printed as CNTATCATQRLAEFLRHSSNNLKPILPPTNVGSNT-trans-Hyp-NH2

EC50, CRE-luciferase assay: 0.14 nM
B23: PD003 (peptide)
peptide: RCNTATCATQRLAEFLRHSSNNK([AEEA-AEEA-γGlu-C20 diacid])GPILPPTNVGSNTP-NH2
modifications: disulfide 2-7 (inferred)

EC50, CRE-luciferase assay: 0.029 nM
B24: PD198 (peptide)
peptide: {C20 diacid-γGlu}-KGGGGRCNTATCATQRLADFLRHSSNNLRPILPPTNVGSNTP-NH2
modifications: disulfide 7-12 (inferred)

EC50, CRE-luciferase assay: 0.793 nM
B25: PD057 (peptide)
peptide: RCNTATCATQRLAEFLRHSSNNLK([γGlu-C20 diacid])PILPPTNVGSNT[Pip′]-NH2
modifications: disulfide 2-7 (inferred)

EC50, CRE-luciferase assay: 0.087 nM
B26: PD192 (peptide)
peptide: {C20 diacid-AEEA-AEEA-Inp′}-KCNTATCATQRLADFLRHSSNNLKPILPPTNVGSNTP-NH2
modifications: disulfide 2-7 (inferred)

EC50, CRE-luciferase assay: 0.044 nM
B29: PD066 (peptide)
peptide: K([γGlu-C20 diacid])CNTATCATQRLAEFLRHSSNNFGPILPPTNVGSNTP-NH2
modifications: ends and bridges not checked

EC50, CRE-luciferase assay: 0.586 nM
B30: PD056 (peptide)
peptide: RCNTATCATQRLADFLRHSSNNLK([γGlu-C20 diacid])PILPPTNVGSNT[cis‑Hyp]-NH2
modifications: disulfide 2-7 (inferred)

EC50, CRE-luciferase assay: 0.098 nM
B32: PD050 (peptide)
peptide: CNTATCATQRLADFLRHSSNNLK([γGlu-C20 diacid])PILPPTNVGSNTP-NH2
modifications: disulfide 1-6 (inferred)

EC50, CRE-luciferase assay: 0.246 nM
B33: PD060 (peptide)
peptide: RCNTATCATQRLADFLRHSSNNLK([γGlu-C20 diacid])PILPPTNVGSNT[Aze]-NH2
modifications: disulfide 2-7 (inferred)

EC50, CRE-luciferase assay: 0.025 nM
B35: PD197 (peptide)
peptide: {C20 diacid-γGlu}-RCNTATCATQRLADFLRHSSNNLRPILPPTNVGSNTP-NH2
modifications: disulfide 2-7 (inferred)

Second part, the binder before the results:

B1: PD058 (peptide)
peptide: RCNTATCATQRLADFLRHSSNNLK([γGlu-C20 diacid])PILPPTNVGSNT[Pip′]-NH2
modifications: disulfide 2-7 (inferred)
EC50, CRE-luciferase assay: 0.319 nM

B2: PD043 (peptide)
peptide: RCNTATCATQRLA[Aad]FLRHSSNNLK([γGlu-C20 diacid])PILPPTNVGSNTP-NH2
modifications: disulfide 2-7 (inferred)
EC50, CRE-luciferase assay: 1.13 nM

B3: PD047 (peptide)
peptide: RCNTATCATQRLAEFLRHSSNNLK([γGlu-C20 diacid])PILPPTNVGSNTP-NH2
modifications: disulfide 2-7 (inferred)
EC50, CRE-luciferase assay: 0.073 nM

B5: PD046 (peptide)
peptide: RCNTATCATQRLAEFL[Orn]HSSNNLK([γGlu-C20 diacid])PILPPTNVGSNTP-NH2
modifications: disulfide 2-7 (inferred)
EC50, CRE-luciferase assay: 1.68 nM

B8: PD059 (peptide)
peptide: RCNTATCATQRLAEFLRHSSNNLK([γGlu-C20 diacid])PILPPTNVGSNT[Aze]-NH2
modifications: disulfide 2-7 (inferred)
EC50, CRE-luciferase assay: 0.939 nM

B9: PD196 (peptide)
peptide: {C20 diacid-βAsp-AEEA-AEEA}-KCNTATCATQRLADFLRHSSNNLKPILPPTNVGSNTP-NH2
modifications: disulfide 2-7 (inferred)
EC50, CRE-luciferase assay: 0.064 nM

B13: PD049 (peptide)
peptide: CNTATCATQRLAEFLRHSSNNLK([γGlu-C20 diacid])PILPPTNVGSNTP-NH2
modifications: disulfide 1-6 (inferred)
EC50, CRE-luciferase assay: 0.215 nM

B15: PD194 (peptide)
peptide: {C20 diacid-AEEA-AEEA}-DKCNTATCATQRLADFLRHSSNNLKPILPPTNVGSNTP-NH2
modifications: disulfide 3-8 (inferred)
EC50, CRE-luciferase assay: 0.074 nM

B18: PD048 (peptide)
peptide: RCNTATCATQRLADFLRHSSNNLK([γGlu-C20 diacid])PILPPTNVGSNTP-NH2
modifications: disulfide 2-7 (inferred)
EC50, CRE-luciferase assay: 0.047 nM

B19: PD045 (peptide)
peptide: RCNTATCATQRLA[Dap]FLRHSSNNLK([γGlu-C20 diacid])PILPPTNVGSNTP-NH2
modifications: disulfide 2-7 (inferred)
EC50, CRE-luciferase assay: 0.364 nM

B21: PD002 (peptide)
peptide: RCNTATCATQRLAEFLRHSSNK([AEEA-AEEA-γGlu-C20 diacid])LGPILPPTNVGSNTP-NH2
modifications: disulfide 2-7 (inferred)
EC50, CRE-luciferase assay: 0.119 nM

B22: PD069 (peptide)
peptide: {C20 diacid-γGlu}-KCNTATCATQRLADFLRHSSNNLGPILPPTNVGSNT[Hyp]-NH2
modifications: disulfide 2-7 (inferred)
EC50, CRE-luciferase assay: 0.039 nM

B27: PD067 (peptide)
peptide: {C20 diacid-γGlu}-KCNTATCATQRLADFLRHSSNNFGPILPPTNVGSNT[Hyp]-NH2
modifications: disulfide 2-7 (inferred)
EC50, CRE-luciferase assay: 0.034 nM

B28: PD193 (peptide)
peptide: {C20 diacid}-D[AEEA][AEEA]KCNTATCATQRLADFLRHSSNNLKPILPPTNVGSNTP-NH2
modifications: disulfide 5-10 (inferred)
EC50, CRE-luciferase assay: 0.074 nM

B31: PD195 (peptide)
peptide: {C20 diacid-βAsp-AEEA-AEEA}-KCNTATCATQRLADFLRHSSNNLKPILPPTNVGSNTP-NH2
modifications: disulfide 2-7 (inferred)
EC50, CRE-luciferase assay: 0.025 nM

B34: PD062 (peptide)
peptide: RCNTATCATQRLADFLRHSSNNLK([γGlu-C20 diacid])PILPPTNVGSNT[3‑Am‑Pro]-NH2
modifications: disulfide 2-7 (inferred)
EC50, CRE-luciferase assay: 0.374 nM
